Measurements: PMC10821498, “Radiosynthesis Standardization and Preclinical Assessment of the [^68Ga]Ga-DOTA-Ubiquicidin29-41: A Translational Study Targeting Differential Diagnosis of Infectious Processes” (Pharmaceuticals, 2023)
Where a SMILES comes first, the peptide text is derived from it. The star is where a group is joined. DOTA = O=C(O)CN1CCN(CC(=O)O)CCN(CC(=O)*)CCN(CC(=O)O)CC1

Key:
[1] = test system: methicillin-resistant Staphylococcus aureus (MRSA); type: in vivo; details: healthy and MRSA-infected BALB/c mice, 30 and 60 min after i.v. administration, n = 5 per time point
Experimental: The MRSA bacterial strain was prepared in two steps: pre-inoculum and inoculum. In the pre-inoculum phase, 10 mL of Luria Bertani (LB) medium and 20 μL of ampicillin (500 mg/mL) were added to MRSA (50–100 IU). The mixture was maintained overnight at 37 °C and under shaking at 200× g. In the inoculum phase, 20 mL of LB medium, 500 μL of the pre-inoculum preparation content and 40 μL of ampicillin (500 mg/mL) were combined. This new product was maintained at 37 °C and under shaking at 200× g until it reached an absorbance of 0.8–1.0. This quantification was carried out with an LGI-VS-721N spectrophotometer (LGI Scientific, São Paulo, Brazil). At this point, the content was manually homogenized and 1 mL samples were separated for centrifugation at 14,000× g for 5 min. Supernatants were removed and pellets were resuspended in 100 μL of PBS containing 10^9 CFU.
Male BALB/c mice aged between 6 and 8 weeks were used in this work. […]
For the ex vivo biodistribution study, [^68Ga]Ga-DOTA-UBI29-41 was administered intravenously through the caudal vein of the mice (~5 MBq/100 μL) in control and infected animals. […] Organs were removed and weighed, and the radioactivity was quantified in a gamma counter. Percentages of injected activity per gram of organ (% IA/g) were determined, as well as the ratio of target (right tight muscle) to non-target (left tight muscle).

[2] = type: physicochemical
Experimental: The n-octanol/water partition coefficient (P) of [^68Ga]Ga-DOTA-UBI29-41 was determined using the shake-flask method described elsewhere. A 50 µL aliquot (~2 MBq) of the final product was added to a mixture of n-octanol/water (1:1). The tubes containing the mixture were shaken and centrifugated at 5000× g for 5 min in a Minispin® plus centrifuge (Eppendorf AG, Hamburg, Germany). Then, they were let to rest until complete separation of the phases occurred. After that, samples of 100 μL were taken from each phase. Radioactivity in the aliquots was quantified in an automated Wizard^2™ 3” 2480 gamma counter (PerkinElmer, Shelton, CT, USA). From there, the logarithm of P was determined from the ratio of the activity in organic phase to that in the aqueous phase.

rodent serum proteins = assay: in vitro; type: in vitro ADME
Experimental: (§1) SPB was determined via incubation of 50 μL of [^68Ga]Ga-DOTA-UBI29-41 with 450 μL of rodent serum at 37 °C and under gentle shaking at 450× g. At 30 and 60 min, proteins were separated via ultracentrifugation at 14,000× g using Amicon® 10 kDa filters (Merck Millipore, São Paulo, Brazil). The supernatant and pellet were conditioned in microtubes and their radioactivity was quantified in an automated gamma counter. The percentage of SPB was defined by the ratio between the radioactivity in the pellet and the total radioactivity, given by the sum of the radioactivities of the pellet and the supernatant.

in vitro = in vitro ADME, rodent; details: rodent, serum
Experimental: as §1

## CSCC[C@H](NC(=O)[C@H](CCCNC(=N)N)NC(=O)[C@H](CCCNC(=N)N)NC(=O)[C@H](CCCCN)NC(=O)[C@H](C)NC(=O)[C@H](CCCNC(=N)N)NC(=O)CNC(=O)[C@@H](NC(=O)CN1CCN(CC(=O)O)CCN(CC(=O)O)CCN(CC(=O)O)CC1)[C@@H](C)O)C(=O)N[C@@H](CCC(N)=O)C(=O)N[C@@H](Cc1ccc(O)cc1)C(=O)N[C@@H](CC(N)=O)C(=O)N[C@@H](CCCNC(=N)N)C(=O)N[C@@H](CCCNC(=N)N)C(=O)O [[^68Ga]Ga-DOTA-UBI29-41, [^68Ga]Ga-DOTA-Ubiquicidin29-41, metal not drawn] ({DOTA}-TGRAKRRMQYNRR-OH)
[1]
  Blood clearance and excretion: fast blood depuration with urinary excretion
[2]
  Log P: –3.63 ± 0.17
Rodent serum proteins
  Binding to rodent serum proteins (SPB): 60%
In vitro
  fraction unbound at 30 min: 0.398
  fraction unbound at 60 min: 0.559
